Molecular target: RmlT, wall teichoic acid rhamnosyltransferase of Listeria monocytogenes EGDe (Listeria monocytogenes EGDe)
Assay: SEC

**Q.** Which stoichiometry N does the source give for “RmlT, wall teichoic acid rhamnosyltransferase of Listeria monocytogenes EGDe (enzyme)” here?
**A.** 2
